Common to all, as to test: purified protein
Conditions in all cases: 150 μM (−)-indolactam V, 42 °C, 5 min, Tris-HCl pH 7.0, 150 mM NaCl

In series [1] the test system is CC(C)=CCOP(=O)(O)OP(=O)(O)O.
Series [2] relates to CC(C)=CCC/C(C)=C/COP(=O)(O)OP(=O)(O)O.
Series [3] has as its system CC(C)=CCC/C(C)=C/CC/C(C)=C/CO[P@@](=O)(O)OP(=O)(O)O.

For orientation: Km means the substrate concentration at which the rate is half of its maximum. As usually defined, the kcat is the number of substrate molecules converted per active site and unit of time at saturation. For orientation: kcat/Km means the turnover number divided by the Michaelis constant. In the case of “TleC (Streptomyces blastmyceticus; A173M/F170W/W97Y)”, in series [1], the Km worked out at 46.6 ± 8.2 µM, the kcat turned out to be 0.0433 ± 0.00333 s⁻¹ and the kcat/Km stood at 900 M⁻¹ s⁻¹.
Regarding “TleC (Streptomyces blastmyceticus; W97Y)”, in series [2], the Km worked out at 7.7 ± 1.0 µM, the kcat worked out at 0.168 ± 0.00667 s⁻¹ and the kcat/Km was 21800 M⁻¹ s⁻¹. In series [1], the Km is 11.3 ± 1.6 µM, the kcat was 0.402 ± 0.0133 s⁻¹ and the kcat/Km came out at 35500 M⁻¹ s⁻¹.
With “MpnD (Marinactinospora thermotolerans; Y80W)”, in series [2], the Km worked out at 9.7 ± 1.1 µM, the catalytic constant (kcat) is 0.09 ± 0.00167 s⁻¹ and the kcat/Km is 9300 M⁻¹ s⁻¹. For the same substance, in series [1], the Km came to 15.3 ± 2.5 µM, the kcat turned out to be 0.118 ± 0.005 s⁻¹ and the kcat/Km came out at 7700 M⁻¹ s⁻¹.
Turning to “MpnD (Marinactinospora thermotolerans; M159A)”, in series [3], the Km is 48.7 ± 14.6 µM, the kcat was found to be 0.167 ± 0.015 s⁻¹ and the kcat/Km stood at 3400 M⁻¹ s⁻¹. In series [2], the Km was 9.1 ± 1.2 µM, the kcat amounted to 0.0717 ± 0.00333 s⁻¹ and the kcat/Km was 7900 M⁻¹ s⁻¹. In addition, in series [1], the Km came to 24.2 ± 4.2 µM, the kcat worked out at 0.505 ± 0.0333 s⁻¹ and the kcat/Km was 20900 M⁻¹ s⁻¹.
Regarding “TleC (Streptomyces blastmyceticus; A173M/W97Y)”, in series [1], the Km was found to be 41.2 ± 5.6 µM, the kcat was determined as 0.0333 ± 0.00167 s⁻¹ and the specificity constant (kcat/Km) turned out to be 800 M⁻¹ s⁻¹.
As to TleC (Streptomyces blastmyceticus), in series [2], the Km came to 9.5 ± 3.3 µM, the kcat worked out at 0.25 ± 0.025 s⁻¹ and the kcat/Km is 26400 M⁻¹ s⁻¹. For the same substance, in series [1], the Km was determined as 21.7 ± 4.3 µM, the kcat was found to be 0.025 ± 0.00167 s⁻¹ and the kcat/Km was 1100 M⁻¹ s⁻¹.
In the case of MpnD (Marinactinospora thermotolerans), in series [3], the Km amounted to 95.5 ± 17.1 µM, the kcat stood at 0.0867 ± 0.00833 s⁻¹ and the catalytic efficiency (kcat/Km) came out at 900 M⁻¹ s⁻¹. Besides, in series [2], the Km was determined as 26.0 ± 4.9 µM, the kcat came to 0.0433 ± 0.00333 s⁻¹ and the kcat/Km stood at 1700 M⁻¹ s⁻¹. Moreover, in series [1], the Km worked out at 4.8 ± 1.0 µM, the kcat came to 0.882 ± 0.0433 s⁻¹ and the kcat/Km worked out at 183000 M⁻¹ s⁻¹.
Regarding “TleC (Streptomyces blastmyceticus; A173M)”, in series [1], the Km worked out at 24.6 ± 3.0 µM, the kcat turned out to be 0.065 ± 0.00167 s⁻¹ and the kcat/Km came out at 2600 M⁻¹ s⁻¹.

These data come from article PMC4786772, “Manipulation of prenylation reactions by structure-based engineering of bacterial indolactam prenyltransferases” (Nature Communications, 2016).
